Reference: the nanobody polyreactivity screen of Harvey et al. (2022)

Experiment: yeast display, Sf9 membrane polyspecificity reagent, FACS + sequencing; frameworks hold sequencing errors
Method in brief: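 Sorting gates, low and high (top ~1%), were placed on anti-HA fluorescence to track expression and on streptavidin fluorescence to track reagent binding. A clone's polyreactivity label is taken from the gate it came out of. The reagent was 10% biotinylated, detergent-solubilized Sf9 membrane, applied for 1 hour at 4 °C to galactose-induced yeast display cells.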

| Sequence | polyreactivity (PSR sort gate) |
| --- | --- |
| QVQLVESGGGLVQAGGSLRLSCAASGSTFVYYAMGWYRQAPGKEREFVAAINGGGRTNYADSVKGRFTISRDNAKNTVYLQMNSLKPEDTAVYDCAADGLSNVRQMDYWGQGTQVTVSS | low polyreactivity |
| QVQLVESGGGLVQAGGSLRLSCAASGSTFVYYAMGWYRQAPGKEREFVAGISRSGGSTYYADSVKGRFTISRDNAKNTVYLQMNSLIPEDTAVYYCNARGGLPKYGYWGQGTQVTVSS | high polyreactivity |
| QVQLVESGGGLVQAGGSLRLSCAASGSTFVYYAMGWYRQAPGKERELVAAIRYSGASTYYADSVKGRFTISRDNAKNTVYLQMNSLKPEDTAVYYCAASSRTFGYKYYYWGQGTQVTVSS | high polyreactivity |
| QVQLVESGGGLVQAGGSLRLSCAASGSTFVYYAMGWYRQAPGKERELVAASTYADSVKGRFTISRDNAKNTVYLQMNSLKPEDTAVYYCAADFVSAYFTIYDYWGQGTQVTVSS | low polyreactivity |
| QVQLVESGGGLVQAGGSLRLSCAASGSTFVYYAMGWYRQAPGKERELVAVISDDGGTYYADSVKGRFTISRDNAKNTVYLQMNSLKPEDTAVYYCAADPYWFFPHYDSWGQGTQVTVSS | low polyreactivity |
| QVQLVESGGGLVQAGGSLRLSCAASGSTFVYYAMVWYRQAPGKERELVAAITGSVDSTYYADSVKGRFTISRDNAKNTVYLQMNSVKPEDTAVYYCAADTYSTYWGQGTQVTVSS | low polyreactivity |
| QVQLVESGGGLVQAGGSLRLSCAASGSTFVYYDMGWFRQAPGKERELVASISWSGGSTRYADSVKGRFTISRDNAKNTVYLQMNSLKPEDTAVYYCNKSNPDYDGLAIHAFDYWGQGTQVTVSS | low polyreactivity |
| QVQLVESGGGLVQAGGSLRLSCAASGSTFVYYDMGWYRQAPGKERELVAAITGSVDSTYYADSVKGRFTISRDNAKNTVYLQMNSLKPEDTAVYYCAADTYSTYWGQGTQVTVSS | low polyreactivity |
| QVQLVESGGGLVQAGGSLRLSCAASGSTFVYYDMGWYRQAPGQERELVATINGSGSRTNYADSVKGRFTISRDYAKNTVYLQMNSLKPEDTAVYYCAADYISYLVAGGYEDDYWGQVTQVTVSS | low polyreactivity |
| QVQLVESGGGLVQAGGSLRLSCAASGSTFVYYTMGWYRQAPGKERELVAAINNGGSTYYADSVKGRFTISRDNAKNTVYLQMNSLKPEDTAFYYCARFTSRVSKYYWGQGSQVTVSS | low polyreactivity |
| QVQLVESGGGLVQAGGSLRLSCAASGSTFVYYVMGWYRQAPGKERELVAAISWSDDSTYYADSVKGRFTISRDNAKNTVYLQMNSLKAEDTAVYYCAATGYPFYTSGDIEYYYWGQGTQVTVSS | low polyreactivity |
| QVQLVESGGGLVQAGGSLRLSCAASGSTFWAYAMGWYRQAPGKERELVATITWSVGGTYYADSVKGRFTISRDNAKNTVYLQMNSLKPEDTAVYYCATDAYVKGVYEISEDRVDYWGQGTQVTVSS | low polyreactivity |
| QVQLVESGGGLVQAGGSLRLSCAASGSTFWEYAMGWYRQAPGKERELVAAITWSTGSTYYADSVKGRFTISRDNAKNTVYLQMNSLKPEDTAVYYCNVDWGYFYTTQGFDYWGQGTQVTVSS | high polyreactivity |
| QVQLVESGGGLVQAGGSLRLSCAASGSTFWFYAMGWYRQAPGKERELVAVISNSGSTYYADSVKGRFTISRDNAKNTVYLQMNSLKPEDTAVYYCNKDGGGDSYWYDYWGQATQVTVSS | low polyreactivity |
| QVQLVESGGGLVQAGGSLRLSCAASGSTFWGNAMGWYRQAPGKERELVATITDGGSTNYADSVKGRFTISRDNAKNTVYLQMNSLKPEDTAVYYCNAEEHYNTYVLHFRPYYVRHDYWGQGTQVTVSS | low polyreactivity |
| QVQLVESGGGLVQAGGSLRLSCAASGSTFWGYTMGWYRPAPGKERELVAAITGSGGSTNYADSVKGRFTISRDNAKNTVNLQMNSLKPEDTAVYYCAADVFTARRRYDYWGQGTQVTVSS | low polyreactivity |
| QVQLVESGGGLVQAGGSLRLSCAASGSTFWIYTMGWYRQAPGKERELVAAITWSGGRTYYADSVKGRFTISRDNAKNTVYLQMNSLKPEDTAVYYCNADVYSYRPSTIQRYVLFDYWGQGTQVTVSS | low polyreactivity |
